From patent US20110158939A1 (published 2011) come the findings set out here.

Assay [1] concerns the target T1, wild type human Interleukin-4 (human, UniProt P05112 25-153).
T1 sequence (looked up): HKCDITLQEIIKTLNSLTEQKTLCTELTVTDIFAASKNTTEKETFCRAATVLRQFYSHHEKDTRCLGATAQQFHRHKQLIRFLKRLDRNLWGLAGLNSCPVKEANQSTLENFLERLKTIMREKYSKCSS
Nature of the assay: cell-based or functional assay.

For assay [2], the target named is T2, IL-4 receptor α chain (UniProt P24394 26-232, limits assumed).
T2 construct: also called IL-4Rα; IL-4-receptor alpha chain
T2 sequence (looked up): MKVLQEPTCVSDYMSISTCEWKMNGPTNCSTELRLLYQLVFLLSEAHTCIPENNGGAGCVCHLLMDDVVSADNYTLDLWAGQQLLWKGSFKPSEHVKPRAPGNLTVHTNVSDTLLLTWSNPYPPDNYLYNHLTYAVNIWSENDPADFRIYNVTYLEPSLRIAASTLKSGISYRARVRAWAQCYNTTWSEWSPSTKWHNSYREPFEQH
Put plainly: Biacore, IL-4 receptor α chain immobilized. Background: In SPR one partner is held on a chip, and binding of the other changes the refractive index at the surface.

Assay [3] concerns the target T2, IL-4 receptor α chain. Put plainly: Biacore, pre- and post-nebulized samples (Aeroneb Pro), no difference between them.
The target of assay [4] is T2, IL-4 receptor α chain. Nature of the assay: Biacore, IL-4 receptor α chain immobilized (n = 7).

Substitutions are numbered along the chain they refer to. Names and notes keep the numbering of the source.

B1: IL-4RA (mutant human IL-4 protein with the R121D/Y124D pair of substitutions) (ligand, UniProt P05112 25-153, looked up)
chain: T1 sequence (looked up) with R121D, Y124D
notes: mature; Substitution positions count on the mature 129-residue protein, not on the precursor; also called mhIL-4; IL-4 mutein
As usually defined, the koff is a measure of how fast the partners let go of each other. Low values mean slow dissociation, high ones fast dissociation. Broadly, the kon is the second-order rate constant of association. Usually Kd stands for the concentration at which binding is half-saturated. As for B1, in assay [1], the “TF-1/IL-4 proliferation assay, EC50 of inhibition of IL-4-induced cell proliferation” value was in the range of 200 to 300 pM; the “TF-1/IL-4 proliferation assay, IC50, post nebulization (Pari LC Plus)” value is 483 pM; the “TF-1/IL-4 proliferation assay, IC50, pre nebulization (Pari LC Plus)” value was 459 pM. Also, in assay [2], the dissociation rate constant (koff) is 0.0017 s⁻¹ and the kon was 1.6e+07 M⁻¹ s⁻¹. This molecule had a Kd in assay [3] of approximately 100 pM. In assay [4], this molecule gave a Kd of 140 pM.
